# Paper PMC5970223, “Multiplexed profiling of GPCR activities by combining split TEV assays and EXT-based barcoded readouts” (Scientific Reports, 2018)
# Structures can show the parent of a compound that is named as a salt.
# Tests used:
# [1] = test system: dopamine and the adrenergic receptors; conditions: U2OS cells, agonist 100 pM to 100 µM
# Description: (§1) Two hours after transfection, all cell populations were pooled, mixed, and evenly divided into fractions for plating onto assay dishes (Fig. 2a). The cells were cultured and stimulated under identical conditions for agonist or antagonist assays as initially described for GPCR split TEV assays (Supplementary Fig. S1a,b).
# (§2) After cell lysis, RNA from each sample was isolated and converted into cDNA by reverse transcription. […] This permits the mixing of all samples and sequencing of all pooled samples using a single sequencing run (Fig. 2b). The sample barcodes enable tracing experimental conditions, whereas the read counts per EXTs serve as quantitative measurements for the corresponding GPCRs. […] From the normalized data the fold changes of receptor activities were finally calculated.
# (§3) In addition to the stimulation with the single compounds, a compound-mixture (mix) of all agonists was tested. The first set of experiments were carried out in the human osteosarcoma cell line U2OS. We normalized the raw sequencing data to total read numbers of sample codes, followed by averaging reads of internal and external calibrator EXTs as described above (Supplementary Fig. S4).
# (§4) Cells were resuspended in culture medium without antibiotics at a density of 1.5 × 10^6 cells/ml (U2OS) or 3 × 10^6 cells/ml (PC12). […] Transfection-mixes were added to cell suspensions and incubated for 2 h at 37 °C without shaking. Suspensions were centrifuged for 5 min at 900 rpm and resuspended in culture medium to remove transfection reagents. All transfection samples were combined within one pool and plated on multiple wells of 6-well plates and incubated for 24 h at 37 °C. Afterwards, cells were starved for 17–18 h and then treated with compounds for 6 h in duplicates. After compound treatment cells were washed with PBS and 500 µl RLT lysis buffer was applied for cell lysis. Lysates were processed for sequencing as described below.
# RNA was additional in solution treated with Turbo DNase (Ambion) for 30 min at 37 °C and repurified over an RNeasy column. […]
# [2] = test system: T1, somatostatin receptor SSTR3; assay: multiplexed GPCRprofiler assay in U2OS cells; format: cell-based, human; conditions: agonist 100 pM to 100 µM
# T1 construct: ORFs of GPCRs were PCR amplified; expressed in transfected cells; host or cells: U2OS
# Description: as §1, §2, §3, §4
# (§5) RNA was additional in solution treated with Turbo DNase (Ambion) for 30 min at 37 °C and repurified over an RNeasy column. First-strand cDNA synthesis was performed with 1 µg total RNA using superscript III reverse transcriptase (Invitrogen) and 120 pmol of a random nanomer primer. […] On order to differentiate different samples 13mer barcodes were introduced between 5′ Ion adapter and target sequence. All processed samples of an experiment were combined within one pool and purified using PCR clean-up kit (Macherey-Nagel).
# (§6) Raw sequencing data analyses were done by using BLAST algorithm and in-house developed R scripts.
# [3] = test system: T2, somatostatin receptor SSTR2; assay: multiplexed GPCRprofiler assay in U2OS cells; format: cell-based, human; conditions: agonist 100 pM to 100 µM
# T2 construct: ORFs of GPCRs were PCR amplified; expressed in transfected cells; host or cells: U2OS
# Description: as §1, §2, §3, §4, §5, §6
# [4] = test system: T3, somatostatin receptor SSTR1; assay: multiplexed GPCRprofiler assay in U2OS cells; format: cell-based, human; conditions: agonist 100 pM to 100 µM
# T3 construct: ORFs of GPCRs were PCR amplified; expressed in transfected cells; host or cells: U2OS
# Description: as §1, §2, §3, §4, §5, §6
# [5] = test system: T4, Vasopressin receptor AVPR2; assay: multiplexed GPCRprofiler assay in U2OS cells; format: cell-based, human; conditions: agonist 100 pM to 100 µM
# T4 construct: ORFs of GPCRs were PCR amplified; expressed in transfected cells; host or cells: U2OS
# Description: as §1, §2, §3, §4, §5, §6
# [6] = test system: T5, Vasopressin receptor AVPR1A; assay: multiplexed GPCRprofiler assay in U2OS cells; format: cell-based, human; conditions: agonist 100 pM to 100 µM
# T5 construct: ORFs of GPCRs were PCR amplified; expressed in transfected cells; host or cells: U2OS
# Description: as §1, §2, §3, §4, §5, §6
# [7] = target: DRD2-V2R-NTEV-tevS-GV (human) (UniProt P14416); assay: split reporter (BiFC, NanoBiT); multiplexed GPCRprofiler: split TEV with EXT barcode read-out, U2OS cells transiently transfected with GPCR-V2R-NTEV-tevS-GV and β-arrestin2delta-CTEV, pooled; serotonin, dopamine, epinephrine, vasopressin, somatostatin or their mix, 100 pM to 100 µM, 6 h; also with paliperidone or aripiprazole alone or with an agonist mix (1 µM each, with histamine); fold change over unstimulated
# [8] = target: ADRA2C-V2R-NTEV-tevS-GV (human) (UniProt P18825); assay: as above
# [9] = target: ADRA2B-V2R-NTEV-tevS-GV (human) (UniProt P18089); assay: as above
# [10] = target: SSTR1-V2R-NTEV-tevS-GV (human) (UniProt P30872); assay: as above
# [11] = target: SSTR2 and SSTR3; assay: as above
# [12] = target: DRD3-V2R-NTEV-tevS-GV (human) (UniProt P35462); assay: as above
# [13] = target: DRD1-V2R-NTEV-tevS-GV (human) (UniProt P21728); assay: as above
# [14] = target: ADRA1A-V2R-NTEV-tevS-GV (human) (UniProt P35348); assay: split reporter (BiFC, NanoBiT); multiplexed GPCRprofiler: split TEV with EXT barcode read-out, identical experiment in PC12 cells (Supplementary Fig. S5)
# [15] = target: AVPR1A-V2R-NTEV-tevS-GV (human) (UniProt P37288); assay: as above
# [16] = target: HTR2A-V2R-NTEV-tevS-GV (human) (UniProt P28223); assay: as above
# Chain of β-arrestin2delta-CTEV (P32121 1-383, stated change not applied): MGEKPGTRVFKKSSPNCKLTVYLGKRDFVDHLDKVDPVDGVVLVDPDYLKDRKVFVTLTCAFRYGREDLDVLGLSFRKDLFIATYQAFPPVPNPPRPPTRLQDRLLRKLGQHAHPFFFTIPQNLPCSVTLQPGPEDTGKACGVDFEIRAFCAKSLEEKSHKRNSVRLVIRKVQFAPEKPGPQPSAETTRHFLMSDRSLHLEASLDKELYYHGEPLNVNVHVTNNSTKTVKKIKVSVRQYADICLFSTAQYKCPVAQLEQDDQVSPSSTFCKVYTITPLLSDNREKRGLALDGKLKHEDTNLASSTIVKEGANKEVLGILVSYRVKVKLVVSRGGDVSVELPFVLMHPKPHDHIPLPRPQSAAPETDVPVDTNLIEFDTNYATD
# Chain of ADRA2C-V2R-NTEV-tevS-GV (human) (P18825 whole entry): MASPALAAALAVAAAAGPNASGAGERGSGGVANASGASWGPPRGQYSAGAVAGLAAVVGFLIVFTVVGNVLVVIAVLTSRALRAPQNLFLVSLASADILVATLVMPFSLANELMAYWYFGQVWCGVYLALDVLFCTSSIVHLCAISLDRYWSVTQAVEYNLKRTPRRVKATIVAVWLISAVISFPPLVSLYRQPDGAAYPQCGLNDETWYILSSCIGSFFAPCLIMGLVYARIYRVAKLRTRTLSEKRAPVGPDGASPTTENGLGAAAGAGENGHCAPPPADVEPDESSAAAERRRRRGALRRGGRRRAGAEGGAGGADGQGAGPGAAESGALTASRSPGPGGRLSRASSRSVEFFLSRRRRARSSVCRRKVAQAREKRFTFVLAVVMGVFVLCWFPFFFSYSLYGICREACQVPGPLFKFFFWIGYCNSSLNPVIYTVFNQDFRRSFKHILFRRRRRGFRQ
# Chain of ADRA2B-V2R-NTEV-tevS-GV (human) (P18089 whole entry): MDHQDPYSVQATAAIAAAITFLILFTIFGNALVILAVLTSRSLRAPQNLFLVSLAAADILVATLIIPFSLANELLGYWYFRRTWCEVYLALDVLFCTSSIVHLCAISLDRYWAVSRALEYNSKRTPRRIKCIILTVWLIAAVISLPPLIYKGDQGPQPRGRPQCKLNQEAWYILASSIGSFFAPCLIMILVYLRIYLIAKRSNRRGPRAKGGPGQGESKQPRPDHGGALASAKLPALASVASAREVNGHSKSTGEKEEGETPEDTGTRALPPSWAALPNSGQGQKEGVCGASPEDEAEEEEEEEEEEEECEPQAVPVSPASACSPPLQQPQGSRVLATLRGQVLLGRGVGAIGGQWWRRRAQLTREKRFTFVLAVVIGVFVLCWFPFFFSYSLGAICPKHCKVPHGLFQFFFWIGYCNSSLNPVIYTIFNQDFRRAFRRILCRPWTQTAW
# Chain of DRD2-V2R-NTEV-tevS-GV (human) (P14416 whole entry): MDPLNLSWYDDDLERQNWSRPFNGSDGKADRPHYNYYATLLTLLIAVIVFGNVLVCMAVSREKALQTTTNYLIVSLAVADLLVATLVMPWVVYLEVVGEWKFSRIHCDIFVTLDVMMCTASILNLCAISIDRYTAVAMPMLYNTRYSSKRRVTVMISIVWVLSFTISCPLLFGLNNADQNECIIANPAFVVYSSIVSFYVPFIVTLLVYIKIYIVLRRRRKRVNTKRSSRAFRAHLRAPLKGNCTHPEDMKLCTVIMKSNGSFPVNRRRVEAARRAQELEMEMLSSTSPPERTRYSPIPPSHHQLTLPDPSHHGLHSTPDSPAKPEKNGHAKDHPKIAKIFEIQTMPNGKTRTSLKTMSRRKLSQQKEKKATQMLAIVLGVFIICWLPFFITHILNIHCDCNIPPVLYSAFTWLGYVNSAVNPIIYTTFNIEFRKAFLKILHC
# Chain of ADRA1A-V2R-NTEV-tevS-GV (human) (P35348 whole entry): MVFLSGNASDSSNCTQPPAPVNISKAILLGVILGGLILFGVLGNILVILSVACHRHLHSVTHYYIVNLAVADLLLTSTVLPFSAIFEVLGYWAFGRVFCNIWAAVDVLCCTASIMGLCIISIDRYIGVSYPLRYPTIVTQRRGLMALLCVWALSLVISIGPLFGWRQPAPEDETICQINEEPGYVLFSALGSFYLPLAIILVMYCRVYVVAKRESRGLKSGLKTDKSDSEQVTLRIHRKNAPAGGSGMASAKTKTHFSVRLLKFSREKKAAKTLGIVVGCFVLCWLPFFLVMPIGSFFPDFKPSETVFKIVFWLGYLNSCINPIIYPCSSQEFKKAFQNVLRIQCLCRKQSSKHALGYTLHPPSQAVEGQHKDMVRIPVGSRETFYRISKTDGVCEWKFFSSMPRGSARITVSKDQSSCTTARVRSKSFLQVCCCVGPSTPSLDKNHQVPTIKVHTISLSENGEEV
# Chain of SSTR1-V2R-NTEV-tevS-GV (human) (P30872 whole entry): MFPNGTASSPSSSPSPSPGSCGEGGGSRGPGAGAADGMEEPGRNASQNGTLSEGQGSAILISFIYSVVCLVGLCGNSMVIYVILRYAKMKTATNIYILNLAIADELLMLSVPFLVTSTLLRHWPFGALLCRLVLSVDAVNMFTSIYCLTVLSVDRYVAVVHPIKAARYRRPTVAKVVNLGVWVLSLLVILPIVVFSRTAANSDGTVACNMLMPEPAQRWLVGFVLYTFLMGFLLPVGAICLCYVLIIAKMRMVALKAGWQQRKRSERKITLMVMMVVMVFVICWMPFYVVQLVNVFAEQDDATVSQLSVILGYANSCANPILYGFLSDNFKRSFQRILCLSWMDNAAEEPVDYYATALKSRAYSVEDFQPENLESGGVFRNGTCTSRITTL
# Chain of DRD3-V2R-NTEV-tevS-GV (human) (P35462 whole entry): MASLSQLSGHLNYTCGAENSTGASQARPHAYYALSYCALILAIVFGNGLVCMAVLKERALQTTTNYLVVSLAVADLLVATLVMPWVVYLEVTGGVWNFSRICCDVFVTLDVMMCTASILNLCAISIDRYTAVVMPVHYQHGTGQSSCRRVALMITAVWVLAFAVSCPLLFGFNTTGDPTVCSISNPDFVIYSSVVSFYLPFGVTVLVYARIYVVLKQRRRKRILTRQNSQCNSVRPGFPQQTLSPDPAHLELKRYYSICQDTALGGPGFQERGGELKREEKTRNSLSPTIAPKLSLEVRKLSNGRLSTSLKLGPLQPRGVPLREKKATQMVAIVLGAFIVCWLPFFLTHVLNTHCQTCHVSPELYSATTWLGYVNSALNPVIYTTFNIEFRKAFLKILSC
# Chain of AVPR1A-V2R-NTEV-tevS-GV (human) (P37288 whole entry): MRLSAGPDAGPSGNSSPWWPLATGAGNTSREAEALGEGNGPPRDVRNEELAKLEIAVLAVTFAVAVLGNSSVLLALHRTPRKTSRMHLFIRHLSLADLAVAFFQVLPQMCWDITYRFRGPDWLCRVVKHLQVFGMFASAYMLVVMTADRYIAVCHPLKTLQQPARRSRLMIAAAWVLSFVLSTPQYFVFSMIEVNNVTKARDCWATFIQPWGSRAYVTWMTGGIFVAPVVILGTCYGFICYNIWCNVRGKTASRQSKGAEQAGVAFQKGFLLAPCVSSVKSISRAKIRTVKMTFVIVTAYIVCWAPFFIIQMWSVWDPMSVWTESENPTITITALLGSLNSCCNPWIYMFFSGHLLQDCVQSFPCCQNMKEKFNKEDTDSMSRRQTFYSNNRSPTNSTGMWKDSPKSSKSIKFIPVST
molecule,measurement,setting,value
"CNC[C@H](O)c1ccc(O)c(O)c1 [Epinephrine, Epinephrine hydrochloride]",signals of both receptor subfamilies (dopamine and adrenergic) upon stimulation,[1],elevated signals
Somatostatin,induction rate (up to),[2],9–10 fold
same,induction rate (up to),[3],9–10 fold
same,induction rate (up to),[4],up to 4 fold
[Arg8]-Vasopressin acetate salt,receptor induction by agonist,[5],induced
same,receptor induction by agonist,[6],induced
β-arrestin2delta-CTEV (from UniProt P32121 1-383) (domain or fragment),"fold change of receptor activation (split TEV signal) over unstimulated, at 10 µM serotonin",[7],5 fold
same,fold change of receptor activation (split TEV signal) over unstimulated,[8],13 fold
same,fold change of receptor activation (split TEV signal) over unstimulated,[9],10 fold
same,fold change of receptor activation (split TEV signal) over unstimulated,[10],4 fold
same,fold change of receptor activation (split TEV signal) over unstimulated,[11],9 to 10 fold
same,fold change of receptor activation (split TEV signal) over unstimulated,[12],2 fold
same,fold change of receptor activation (split TEV signal) over unstimulated,[13],2 fold
same,fold activation (split TEV signal),[14],314 fold
same,fold activation (split TEV signal),[15],44.3 fold
same,fold activation (split TEV signal),[16],89.5 fold
